Measured values from doi:10.1101/2021.06.14.448324.

What was measured:
[1] = target: DTX3L D1 domain (human); assay: cross-linking
[2] = target: DTX3L D2 domain (human); assay: cross-linking

Substance: DTX3L D1 domain (domain or fragment)
- stoichiometry N [1]: 2

Substance: DTX3L D2 domain (domain or fragment)
- stoichiometry N [2]: 4
